Results as given in patent publication US20050100540A1, “Platelet-activating factor acetylhydrolase” (priority 1993, published 2005).

What was measured:
[1] = PAF-AH activity of E. coli constructs with extended amino termini (lysate, media); format: biochemical; conditions: trp promoter
Protocol: PAF-AH activity in transfectant supernatants was determined by the method of Stafforini et al. (1990), supra, with the following modifications. Briefly, PAF-AH activity was determined by measuring the hydrolysis of ^3H-acetate from [acetyl-^3H) PAF (New England Nuclear, Boston, Mass.). The aqueous free ^3H-acetate was separated from labeled substrate by reversed-phase column chromatography over octadecylsilica gel cartridges (Baker Research Products, Phillipsburg, Pa.). Assays were carried out using 10 μl transfectant supernatant in 0.1M Hepes buffer, pH 7.2, in a reaction volume of 50 μl. A total of 50 pmoles of substrate were used per reaction with a ratio of 1:5 labeled: cold PAF. Reactions were incubated for 30 minutes at 37° C. and stopped by the addition of 40 μl of 10M acetic acid. The solution was then washed through the octadecylsilica gel cartridges which were then rinsed with 0.1M sodium acetate. The aqueous eluate from each sample was collected and counted in a liquid scintillation counter for one minute. Enzyme activity was expressed in counts per minute.
and encompassed the termination codon of sAH 406-3 and contained an EcoRV cloning site. PCR reactions were performed essentially as described in Example 3. The resulting PCR product was digested with XbaI and EcoRV and subcloned into a pBR322 vector containing the Trp promoter [deBoer et al., PNAS. 80:21-25 (1983)] immediately upstream of the cloning site. E. coli strain XL-1 Blue was transformed with the expression construct and cultured in L broth containing 100 μg/ml of carbenicillin. Transformants from overnight cultures were pelleted and resuspended in lysis buffer containing 50 mM Tris-HCl pH 7.5, 50 mM NaCl, 10 mM CHAPS, 1 mM EDTA, 100 μg/ml lysozyme, and 0.05 trypsin-inhibiting units (TIU)/ml Aprotinin. Following a 1 hour incubation on ice and sonication for 2 minutes, the lysates were assayed for PAF-AH activity by the method described in Example 4. E. coli transformed with the expression construct (designated trp AH) generated a product with PAF-AH activity.
Several E. coli expression constructs were also evaluated which produce PAF-AH with extended amino termini. The N-terminus of natural plasma PAF-AH was identified as Ile42 by amino acid sequencing (Example 2). […] Acids Res., 14:4683-4690 (1986)]. Presumably a more classical signal sequence (M1-A17) is recognized by the cellular secretion system, followed by endoproteolytic cleavage. The entire coding sequence for PAF-AH beginning at the initiating methionine (nucleotides 162 to 1487 of SEQ ID NO: 7) was engineered for expression in E. coli using the trp promoter. […] Another expression construct, beginning at Val18 (nucleotides 213 to-1487 of SEQ ID NO: 7), produced active PAF-AH at about one third the level of the original construct.

[2] = Degradation of oxidized phospholipid by recombinant PAF-AH; format: biochemical; conditions: oxidized phospholipid with oxidatively cleaved sn-2 fatty acid
PAF-induced pleurisy = PAF-induced pleurisy (Evans blue vascular leakage); format: in vivo, rat; conditions: 300 μl PAF-AH IV 15 minutes before 2.0 nmol PAF into pleural space, 1 hour
[3] = test system: OVA-induced eosinophil infiltration of the trachea; assay: Antigen-induced eosinophil recruitment to trachea; format: in vivo, mouse; conditions: 750 units IV before and 24 h after aerosolized OVA (group 4)
Protocol: Recombinant PAF-AH enzyme of the invention was also tested for efficacy in a model of antigen-induced eosinophil recruitment. The accumulation of eosinophils in the airway is a characteristic feature of late phase immune responses which occur in asthma, rhinitis and eczema. BALB/c mice (Charles River) were sensitized by two intraperitoneal injections consisting of 1 μg of ovalbumin (OVA) in 4 mg of aluminum hydroxide (Imject alum, Pierce Laboratories, Rockford. Ill.) given at a 2 week interval. Fourteen days following the second immunization, the sensitized mice were challenged with either aerosolized OVA or saline as a control.
Prior to challenge mice were randomly placed into four groups, with four mice/group. […] Mice in groups 2 and 4 were pretreated with 750 units of PAF-AH (activity of 5,500 units/ml given in 140 μl of PAF-AH buffer). Thirty minutes following administration of PAF-AH or buffer, mice in groups 1 and 2 were exposed to aerosolized PBS as described below, while mice in groups 3 and 4 were exposed to aerosolized OVA. Twenty-four hours later mice were treated a second time with either 140 μl of buffer (groups 1 and 3) or 750 units of PAF-AH in 140 μl of buffer (groups 2 and 4) given by intravenous injection.
Eosinophil infiltration of the trachea was induced in the sensitized mice by exposing the animals to aerosolized OVA. […]

B1: PAF-AH: Recombinant human plasma platelet-activating factor acetylhydrolase (beginning at Ile42) expressed in E. coli from construct pUC trp AH (protein)
chain: IQVLMAAASFGQTKIPRGNGPYSVGCTDLMFDHTNKGTFLRLYYPSQDNDRLDTLWIPNKEYFWGLSKFLGTHWLMGNILRLLFGSMTTPANWNSPLRPGEKYPLVVFSHGLGAFRTLYSAIGIDLASHGFIVAAVEHRDRSASATYYFKDQSAAEIGDKSWLYLRTLKQEEETHIRNEQVRQRAKECSQALSLILDIDHGKPVKNALDLKFDMEQLKDSIDREKIAVIGHSFGGATVIQTLSEDQRFRCGIALDAWMFPLGDEVYSRIPQPLFFINSEYFQYPANIIKMKKCYSPDKERKMITIRGSVHQNFADFTFATGKIIGHMLKLKGDIDSNVAIDLSNKASLAFLQKHLGLHKDFDQWDCLIEGDDENLIPGTNINTTNQHIMLQNSSGIEKYN
PAF-AH activity, Lysate ([1]; E. coli lysate): 177.7 U/ml/OD600
PAF-AH activity, Media ([1]; E. coli media): 0.030 U/ml/OD600
Degradation of glutaroylPC [2]: rapidly degraded
Reduction in inflammation (vascular leakage, Evans blue) (PAF-induced pleurisy): > 80%
Eosinophils in the submucosal tissue of the trachea [3]: very few eosinophils in the submucosal tissue
